How the values were obtained:
HLA-B*07:02 = HLA-B*07:02 (Homo sapiens, UniProt P01889); assay: MHC binding assay (UV-ligand exchange, β2m ELISA); conditions: peptide exchange yield, binding to HLA-B*07:02
CD8+ T cells = assay: In vitro immunogenicity: T-cell priming with aAPCs loaded with peptide/MHC and anti-CD28, multimer readout; assay type: cell-based, human
HLA-A*24:02 = HLA-A*24:02 (Homo sapiens, UniProt P04439, D101N/D140Y/D185E/E176V/E190D/F33S/G103R/G107R/I119L/I121M/I306V/K335N/L105A/L180Q/L300P/N151K/N90K/Q86E/Q94H/R106L/R138H/R89G/T104I/T345S/V100E/W191G/Y123F); assay: MHC binding assay (UV-ligand exchange, β2m ELISA); conditions: for Peptide exchange: peptide exchange yield, binding to HLA-A*24:02
HLA-A*02:01 = HLA-A*02:01 (Homo sapiens, UniProt P04439, D140Y/D185E/D98H/E176V/E277Q/G131W/G231S/I119V/I121R/I166T/I218V/L300P/L318F/N151K/N90K/P208A/P217A/Q86G/Q94H/R138H/R169H/T345S); assay: MHC binding assay (UV-ligand exchange, β2m ELISA); conditions: peptide exchange yield, binding to HLA-A*02:01

Row | Substance | Peptide exchange (HLA-B*07:02) | Peptide exchange (HLA-A*24:02) | other results
1 | 163 (RPASSLRP; listed as Homo sapiens) [compound 163] | “++” (>20% = ++) |  | 
2 | 160 (RPAPADSAL; listed as Homo sapiens) [compound 160] | “+++” (>50 = +++) |  | 
3 | 172 (KPAHYPLIAL; listed as Homo sapiens) [compound 172] | “+++” (>50 = +++) |  | Wells positive [%] (CD8+ T cells; HLA B*07): “+++” (50%-69% = +++)
4 | 113 (VWAKILSAF; listed as Homo sapiens) [compound 113] |  | “+++” (>50 = +++) | 
5 | 47 (YQDSWFQQL; listed as Homo sapiens) [compound 47] |  |  | Peptide exchange (HLA-A*02:01): “+++” (>50 = +++)
6 | 118 (TYISKTIAL; listed as Homo sapiens) [compound 118] |  | “+++” (>50 = +++) | 
7 | 152 (IPSRLLAIL; listed as Homo sapiens) [compound 152] | “+++” (>50 = +++) |  | 
8 | 123 (RQYLAINQI; listed as Homo sapiens) [compound 123] |  | “+” (>10% = +) | 
9 | 54 (YLPPTDPRMSV; listed as Homo sapiens) [compound 54] |  |  | Peptide exchange (HLA-A*02:01): “++++” (>75% = ++++)
10 | 162 (MPMISIPRV; listed as Homo sapiens) [compound 162] | “++” (>20% = ++) |  | 
11 | 52 (YVSSGEMMV; listed as Homo sapiens) [compound 52] |  |  | Peptide exchange (HLA-A*02:01): “+++” (>50 = +++)
12 | 155 (FPYPYAERL; listed as Homo sapiens) [compound 155] | “++” (>20% = ++) |  | Wells positive [%] (CD8+ T cells; HLA B*07): “+++” (50%-69% = +++)
13 | 141 (KYLSIPAVFF; listed as Homo sapiens) [compound 141] |  | “++++” (>75% = ++++) | 
14 | 121 (SYIEKVRFL; listed as Homo sapiens) [compound 121] |  | “+++” (>50 = +++) | 
15 | 122 (KLYGMPTDFGF; listed as Homo sapiens) [compound 122] |  | “++” (>20% = ++) | 
16 | 258 (APSGTRVVQVL; listed as Homo sapiens) [compound 258] | “++” (>20% = ++) |  | 
17 | 40 (KIDDIWNLEV; listed as Homo sapiens) [compound 40] |  |  | Peptide exchange (HLA-A*02:01): “+++” (>50 = +++)
18 | 134 (TYLTGRQF; listed as Homo sapiens) [compound 134] |  | “++” (>20% = ++) | 
19 | 173 (MVPSAGQLALF; listed as Homo sapiens) [compound 173] | “++” (>20% = ++) |  | 
20 | 127 (IFINLSPEF; listed as Homo sapiens) [compound 127] |  | “++++” (>75% = ++++) | 
21 | 61 (RLFGLFLNNV; listed as Homo sapiens) [compound 61] |  |  | Peptide exchange (HLA-A*02:01): “++++” (>75% = ++++)
22 | 129 (VFLNQIYTQL; listed as Homo sapiens) [compound 129] |  | “++” (>20% = ++) | 
23 | 148 (VPDGVSKVL; listed as Homo sapiens) [compound 148] | “++” (>20% = ++) |  | Wells positive [%] (CD8+ T cells; HLA B*07): “+++” (50%-69% = +++)
24 | 161 (NPYEGRVEV; listed as Homo sapiens) [compound 161] | “++” (>20% = ++) |  | 

Row | Substance | Peptide exchange (HLA-B*07:02) | Peptide exchange (HLA-A*24:02) | other results
25 | 150 (KPSSKALGTSL; listed as Homo sapiens) [compound 150] | “+++” (>50 = +++) |  | 
26 | 140 (KYLSIPAVF; listed as Homo sapiens) [compound 140] |  | “++++” (>75% = ++++) | 
27 | 168 (IPTDKLLVI; listed as Homo sapiens) [compound 168] | “++” (>20% = ++) |  | 
28 | 39 (YLLPSVVLL; listed as Homo sapiens) [compound 39] |  |  | Peptide exchange (HLA-A*02:01): “++++” (>75% = ++++)
29 | 143 (FELPTGAGLQL; listed as Homo sapiens) [compound 143] | “++” (>20% = ++) |  | 
30 | 139 (PYASLASELF; listed as Homo sapiens) [compound 139] |  | “++++” (>75% = ++++) | 
31 | 174 (VPSLQRLML; listed as Homo sapiens) [compound 174] | “+++” (>50 = +++) |  | 
32 | 170 (SPMWHVQQL; listed as Homo sapiens) [compound 170] | “+++” (>50 = +++) |  | Wells positive [%] (CD8+ T cells; HLA B*07): “++++” (>= 70% = ++++)
33 | 135 (VIAPIISNF; listed as Homo sapiens) [compound 135] |  | “+++” (>50 = +++) | 
34 | 59 (KLHEIYIQA; listed as Homo sapiens) [compound 59] |  |  | Peptide exchange (HLA-A*02:01): “++++” (>75% = ++++)
35 | 53 (LLMTSLTES; listed as Homo sapiens) [compound 53] |  |  | Peptide exchange (HLA-A*02:01): “+++” (>50 = +++)
36 | 130 (VYGDGHYLTF; listed as Homo sapiens) [compound 130] |  | “+++” (>50 = +++) | 
37 | 144 (IPEPSAQQL; listed as Homo sapiens) [compound 144] | “++” (>20% = ++) |  | Wells positive [%] (CD8+ T cells; HLA B*07): “+” (<20% = +)
38 | 169 (FPTEVTPHAF; listed as Homo sapiens) [compound 169] | “++” (>20% = ++) |  | 
39 | 259 (RPAVGHSGL; listed as Homo sapiens) [compound 259] | “++” (>20% = ++) |  | 
40 | 153 (APAAVPSAPA; listed as Homo sapiens) [compound 153] | “+++” (>50 = +++) |  | 
41 | 159 (FPAHPSLLL; listed as Homo sapiens) [compound 159] | “++” (>20% = ++) |  | 
42 | 256 (LPALPQQLI; listed as Homo sapiens) [compound 256] | “+++” (>50 = +++) |  | 
43 | 154 (GPGTRLSL; listed as Homo sapiens) [compound 154] | “++” (>20% = ++) |  | 
44 | 137 (KYLSLSNSF; listed as Homo sapiens) [compound 137] |  | “++++” (>75% = ++++) | 
45 | 145 (RVPSYTLIL; listed as Homo sapiens) [compound 145] | “+++” (>50 = +++) |  | 
46 | 120 (MYAKEFDLL; listed as Homo sapiens) [compound 120] |  | “+++” (>50 = +++) | 
47 | 138 (KYLSIPTVF; listed as Homo sapiens) [compound 138] |  | “++++” (>75% = ++++) | Wells positive [%] (CD8+ T cells; HLA A*24): “+” (<20% = +)
48 | 171 (APKLFAVAF; listed as Homo sapiens) [compound 171] | “+++” (>50 = +++) |  | 

Row | Substance | Peptide exchange (HLA-B*07:02) | Peptide exchange (HLA-A*24:02) | other results
49 | 149 (YPLTGDTRL; listed as Homo sapiens) [compound 149] | “++” (>20% = ++) |  | 
50 | 255 (LPDGSRVEL; listed as Homo sapiens) [compound 255] | “++” (>20% = ++) |  | Wells positive [%] (CD8+ T cells; HLA B*07): “++++” (>= 70% = ++++)
51 | 116 (LVLDYSKDYNHW; listed as Homo sapiens) [compound 116] |  | “+” (>10% = +) | 
52 | 133 (SFDSNLLSF; listed as Homo sapiens) [compound 133] |  | “+” (>10% = +) | 
53 | 157 (SPSPGKDPTL; listed as Homo sapiens) [compound 157] | “++” (>20% = ++) |  | 
54 | 158 (VPERGEPEL; listed as Homo sapiens) [compound 158] | “++” (>20% = ++) |  | 
55 | 156 (HPQVVILSL; listed as Homo sapiens) [compound 156] | “+++” (>50 = +++) |  | Wells positive [%] (CD8+ T cells; HLA B*07): “++” (20%-49% = ++)
56 | 125 (IYGPKYIHPSF; listed as Homo sapiens) [compound 125] |  | “++++” (>75% = ++++) | 
57 | 126 (TFQDKTLNF; listed as Homo sapiens) [compound 126] |  | “+++” (>50 = +++) | 
58 | 114 (KFLDSNIKF; listed as Homo sapiens) [compound 114] |  | “+++” (>50 = +++) | 
59 | 165 (TPIAKVSEL; listed as Homo sapiens) [compound 165] | “+++” (>50 = +++) |  | 
60 | 257 (SPLRGGSSL; listed as Homo sapiens) [compound 257] | “++” (>20% = ++) |  | 
61 | DYIPYVFKL (listed as Homo sapiens) [SEQ ID NO: 268] |  |  | bind to HLA-A*24 (HLA-A*24:02): binds to HLA-A*24
62 | 151 (VVHPRTLLL; listed as Homo sapiens) [compound 151] | “++” (>20% = ++) |  | 
63 | 147 (SPIKVPLLL; listed as Homo sapiens) [compound 147] | “+++” (>50 = +++) |  | 
64 | 146 (SPGDKRLAA; listed as Homo sapiens) [compound 146] | “+++” (>50 = +++) |  | Wells positive [%] (CD8+ T cells; HLA B*07): “++” (20%-49% = ++)
65 | 167 (YPSEVEHMF; listed as Homo sapiens) [compound 167] | “++” (>20% = ++) |  | 
66 | 115 (YFEEAANFL; listed as Homo sapiens) [compound 115] |  | “++” (>20% = ++) | 
67 | 166 (HDPDVGSNSL; listed as Homo sapiens) [compound 166] | “++” (>20% = ++) |  | 
68 | 175 (HPIETLVDIF; listed as Homo sapiens) [compound 175] | “++” (>20% = ++) |  | 
69 | 128 (SYTKVEARL; listed as Homo sapiens) [compound 128] |  | “+++” (>50 = +++) | 
70 | 164 (ISTPSEVSTPL; listed as Homo sapiens) [compound 164] | “++” (>20% = ++) |  | Wells positive [%] (CD8+ T cells; HLA B*07): “+” (<20% = +)
71 | 117 (NFLPPIIARF; listed as Homo sapiens) [compound 117] |  | “++++” (>75% = ++++) | 
72 | 136 (EYNNIQHLF; listed as Homo sapiens) [compound 136] |  | “+++” (>50 = +++) | 

Reference: patent publication US20200339657A1, “PEPTIDES AND COMBINATION THEREOF FOR USE IN THE IMMUNOTHERAPY AGAINST CANCERS” (Immatics Biotechnologies GmbH, priority 2017, published 2020)
